Source: publication PMC10710730, “ProNGF promotes brain metastasis through TrkA/EphA2 induced Src activation in triple negative breast cancer cells” (Experimental Hematology & Oncology, 2023)

Molecular target: T1, EphA2, endogenous in MDA-MB-231 cells (human (endogenous in MDA-MB-231), UniProt P29317 24-976)
T1 construct: EphA2 receptor, endogenous in the human breast cancer cell line MDA-MB-231; also called EphA2 receptor; source: endogenous, MDA-MB-231 cells
Test: proximity ligation; Duolink in Situ-Red kit rabbit/goat on PFA-fixed cells on collagen I coated slides; TrkA/EphA2 red dots per cell counted; cells treated with proNGF (0.5 nM, 0 to 120 min), in MDA-MB-231 TrkA also with p75NTR siRNA
Conditions: partners not purified

T1 sequence (P29317 24-976): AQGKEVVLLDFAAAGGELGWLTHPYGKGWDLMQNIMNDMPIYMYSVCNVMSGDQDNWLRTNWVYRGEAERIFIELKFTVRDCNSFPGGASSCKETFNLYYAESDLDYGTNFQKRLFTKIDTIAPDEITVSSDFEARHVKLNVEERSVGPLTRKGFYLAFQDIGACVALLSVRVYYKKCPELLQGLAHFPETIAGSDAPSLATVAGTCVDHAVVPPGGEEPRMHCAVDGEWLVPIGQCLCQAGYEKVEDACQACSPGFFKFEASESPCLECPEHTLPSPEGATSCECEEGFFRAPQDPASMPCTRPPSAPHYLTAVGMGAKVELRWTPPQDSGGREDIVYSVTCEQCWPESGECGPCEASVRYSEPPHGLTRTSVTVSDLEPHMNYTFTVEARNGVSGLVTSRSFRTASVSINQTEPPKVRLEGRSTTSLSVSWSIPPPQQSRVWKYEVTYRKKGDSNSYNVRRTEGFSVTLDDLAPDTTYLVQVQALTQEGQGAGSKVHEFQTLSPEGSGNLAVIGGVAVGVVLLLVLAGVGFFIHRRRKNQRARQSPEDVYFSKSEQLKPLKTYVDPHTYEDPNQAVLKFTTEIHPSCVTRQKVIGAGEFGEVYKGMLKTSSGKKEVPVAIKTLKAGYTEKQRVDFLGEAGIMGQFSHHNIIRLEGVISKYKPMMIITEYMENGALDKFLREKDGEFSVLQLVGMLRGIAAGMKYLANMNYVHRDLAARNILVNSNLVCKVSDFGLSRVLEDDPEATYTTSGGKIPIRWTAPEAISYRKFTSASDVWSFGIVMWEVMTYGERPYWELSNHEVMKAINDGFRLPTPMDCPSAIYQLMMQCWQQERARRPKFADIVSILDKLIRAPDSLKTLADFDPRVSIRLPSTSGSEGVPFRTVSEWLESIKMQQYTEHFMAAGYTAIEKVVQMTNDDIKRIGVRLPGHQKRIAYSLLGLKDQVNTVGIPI

B1: TrkA (tyrosine kinase receptor TrkA, Tropomyosin kinase A), overexpressed in MDA-MB-231 cells (receptor)
chain: not shown
notes: TrkA, receptor of NGF and proNGF; also called MDA-MB-231-TrkA; MDA-MB-231 HA-TrkA
In the case of B1, the “fold increase of TrkA/EphA2 PLA signal, proNGF 60 min over 0 min” value is reported as 2 fold.
